One block for each substance: values may come before it.
Experiments:
[1] = target: Beroe collagen IV NC1 domains (collagenase-solubilised NC1 hexamer) (Beroe (endogenous in whole ctenophore tissue)); assay: SEC; collagenase digest of whole ctenophore tissue on Superdex 200 10/300 GL; elution compared with native, purified placental basement membrane NC1 hexamer run successively; fractions 12 mL to 16.4 mL blotted with NC1-specific monoclonal antibody (JK-2)
[2] = target: Beroe collagen IV NC1 domains (collagenase-solubilised NC1 hexamer) (Beroe (endogenous in whole ctenophore tissue)); assay: SDS-PAGE under reducing and non-reducing conditions with Western blot; NC1 hexamer fractions from gel filtration; 12% gels, 5% beta-mercaptoethanol or none; for Beroe reduction in TBS with various concentrations of DTT (30 min, 37°C), alkylation with iodoacetamide, non-reducing SDS-PAGE; blot with JK-2
[3] = target: Pleurobrachia collagen IV NC1 domains (collagenase-solubilised NC1 hexamer) (Pleurobrachia (endogenous in whole ctenophore tissue)); assay: SEC; collagenase digest of whole ctenophore tissue on Superdex 200 10/300 GL; elution compared with native, purified placental basement membrane NC1 hexamer run successively; fractions 12 mL to 16.4 mL blotted with NC1-specific monoclonal antibody (JK-2)
[4] = target: Pleurobrachia collagen IV NC1 domains (collagenase-solubilised NC1 hexamer) (Pleurobrachia (endogenous in whole ctenophore tissue)); assay: SDS-PAGE under reducing and non-reducing conditions with Western blot; NC1 hexamer fractions from gel filtration; 12% gels, 5% beta-mercaptoethanol or none; for Beroe reduction in TBS with various concentrations of DTT (30 min, 37°C), alkylation with iodoacetamide, non-reducing SDS-PAGE; blot with JK-2
[5] = target: Mnemiopsis collagen IV NC1 domains (collagenase-solubilised NC1 hexamer) (Mnemiopsis (endogenous in whole ctenophore tissue)); assay: SEC; collagenase digest of whole ctenophore tissue on Superdex 200 10/300 GL; elution compared with native, purified placental basement membrane NC1 hexamer run successively; fractions 12 mL to 16.4 mL blotted with NC1-specific monoclonal antibody (JK-2)
[6] = target: Mnemiopsis collagen IV NC1 domains (collagenase-solubilised NC1 hexamer) (Mnemiopsis (endogenous in whole ctenophore tissue)); assay: SDS-PAGE under reducing and non-reducing conditions with Western blot; NC1 hexamer fractions from gel filtration; 12% gels, 5% beta-mercaptoethanol or none; for Beroe reduction in TBS with various concentrations of DTT (30 min, 37°C), alkylation with iodoacetamide, non-reducing SDS-PAGE; blot with JK-2

stoichiometry N [1]: 6
stoichiometry N [2]: 2
Substance: Beroe collagen IV NC1 domains (collagenase-solubilised NC1 hexamer)

stoichiometry N [3]: 6
stoichiometry N [4]: 2
Substance: Pleurobrachia collagen IV NC1 domains (collagenase-solubilised NC1 hexamer)

stoichiometry N [5]: 6
stoichiometry N [6]: 2
Substance: Mnemiopsis collagen IV NC1 domains (collagenase-solubilised NC1 hexamer)
